The text below walks through data of publication PMC2645378 (Virology Journal, 2008).

For orientation: stoichiometry N means the number of molecules, sites or subunits per partner or assembly.

This data set deals with the molecule itself.

Several values for one entry are separate records, joined by “and”; a condition that tells them apart may be missing. Equal values may be shown once.

B1: FLAG-tagged soluble Lassa virus glycoprotein 1 (sGP1-FLAG) (natural protein)
chain: TSLYKGVYELQTLELNMETLNMTMPLSCTKNNSHHYIMVGNETGLELTLTNTSIINHKFCNLSDAHKKNLYDHALMSIISTFHLSIPNFNQYEAMSCDFNGGKISVQYNLSHSYAGDAANHCGTVANGVLQTFMRMAWGGSYIALDSGRGNWDCIMTSYQYLIIQNTTWEDHCQFSRPSPIGYLGLLSQRTRDIYISRRLL
As to B1, the “stoichiometry N” value is 2 and 3.
